Earlier results, collected in patent publication US20050119762A1, “Hydrogel providing cell-specific ingrowth” (priority 2003, published 2005).

How the values were obtained:
MMP-2 [1] = target: T1, MMP-2 (Homo sapiens, UniProt P08253)
T1 sequence (P08253 110-660): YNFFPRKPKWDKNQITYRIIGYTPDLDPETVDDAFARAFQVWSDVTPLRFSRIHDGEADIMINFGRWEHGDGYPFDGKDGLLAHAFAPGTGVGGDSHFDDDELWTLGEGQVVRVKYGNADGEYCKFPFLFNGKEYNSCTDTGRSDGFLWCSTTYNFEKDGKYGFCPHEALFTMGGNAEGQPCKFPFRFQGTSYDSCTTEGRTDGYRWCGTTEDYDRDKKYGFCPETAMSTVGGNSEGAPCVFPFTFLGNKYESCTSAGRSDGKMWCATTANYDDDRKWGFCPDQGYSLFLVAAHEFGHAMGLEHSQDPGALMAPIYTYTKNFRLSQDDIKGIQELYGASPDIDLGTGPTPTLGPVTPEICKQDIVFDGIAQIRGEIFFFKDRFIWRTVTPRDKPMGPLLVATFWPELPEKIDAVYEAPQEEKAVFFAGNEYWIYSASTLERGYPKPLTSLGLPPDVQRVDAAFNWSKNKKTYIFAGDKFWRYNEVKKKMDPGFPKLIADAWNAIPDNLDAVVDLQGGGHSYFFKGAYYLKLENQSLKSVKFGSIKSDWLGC

MMP-9 [2] = target: T2, MMP-9 (Homo sapiens, UniProt P14780); settings: peptides based on phage clones
T2 construct: a recombinant form of the catalytic domain of MMP-9 expressed in HEK 293 cells; host or cells: HEK 293 cells
T2 sequence (P14780 107-444 limits assumed): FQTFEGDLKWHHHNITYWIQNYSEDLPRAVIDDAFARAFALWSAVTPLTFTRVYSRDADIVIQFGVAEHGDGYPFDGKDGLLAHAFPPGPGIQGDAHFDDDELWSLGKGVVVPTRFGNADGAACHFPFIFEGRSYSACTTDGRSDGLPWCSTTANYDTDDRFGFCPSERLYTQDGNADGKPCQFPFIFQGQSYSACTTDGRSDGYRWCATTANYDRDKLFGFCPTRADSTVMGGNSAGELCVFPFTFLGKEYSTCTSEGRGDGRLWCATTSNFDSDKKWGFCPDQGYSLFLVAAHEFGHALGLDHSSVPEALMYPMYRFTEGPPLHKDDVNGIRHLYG

MMP-9 [3] = target: T2, MMP-9; settings: phage clones selected by MMP-9; for % Hydrolysis 1: experiment 1; for % Hydrolysis 2: experiment 2
MMP-2 [4] = target: T1, MMP-2; settings: synthesized peptides, reciprocal plots
MMP-2 [5] = target: T1, MMP-2; settings: phage substrate clones hydrolysed by activated MMP-2; for % Hydrolysis exp 1: experiment 1; for % Hydrolysis exp 2: experiment 2

Substance	MMP-9 kcat (MMP-9 [2]) [S^−1]	% Hydrolysis 1 (MMP-9 [3]) [%]	% Hydrolysis 2 (MMP-9 [3]) [%]	MMP-2 kcat (MMP-2 [4]) [s⁻¹]	% Hydrolysis exp 1 (MMP-2 [5]) [%]	% Hydrolysis exp 2 (MMP-2 [5]) [%]	further results
GCRDSGESLAYYTADRCG	–	–	–	–	–	–	hydrolysis by MMP-2 (MMP-2 [1]): sensitive to hydrolysis
SG ↓ LKALMITA (SGLKALMITA; peptide substrate based on phage clones) [Peptide A7]	30	79.8	76	–	–	–	–
SGAKPRA ↓ LTA (SGAKPRALTA; peptide substrate based on phage clones) [Peptide A3]	–	–	–	400	–	–	–
SGANISD ↓ LTA (SGANISDLTA; peptide substrate based on phage clones) [Peptide B37]	–	–	–	353	97	95	–
SGAPSW ↓ LLTA (SGAPSWLLTA; peptide substrate based on phage clones) [Peptide A13P]	–	–	–	204	–	–	–
SGAVRW ↓ LLTA (SGAVRWLLTA; peptide substrate based on phage clones) [Peptide A13R]	–	–	–	28	–	–	–
SGAVSW ↓ LLTA (SGAVSWLLTA; peptide sequence based on phage clones) [Peptide A13]	–	78.9	72	105	100	93	–
SGESLAY ↓ YTA (SGESLAYYTA; peptide substrate based on phage clones) [Peptide B74]	–	–	–	622	81	90	–
SGESLRY ↓ YTA (SGESLRYYTA; peptide substrate based on phage clones) [Peptide B74R]	–	–	–	61	–	–	–
SGESPAY ↓ YTA (SGESPAYYTA; peptide substrate based on phage clones) [Peptide B74P]	–	–	–	264	–	–	–
SGFGSRY ↓ LTA (SGFGSRYLTA; peptide substrate based on phage clones) [Peptide A19]	11	45	50	–	–	–	–
SGHMHAA ↓ LTA (SGHMHAALTA; peptide substrate based on phage clones) [Peptide A21A]	–	–	–	601	–	–	–
SGHMHKA ↓ LTA (SGHMHKALTA; peptide substrate based on phage clones) [Peptide A21]	–	–	–	124	30	49	–
SGKGPRQ ↓ ITA (SGKGPRQITA; peptide substrate based on phage clones) [Peptide C15]	703	100	98	–	–	–	–
SGKIPRR ↓ LTA (SGKIPRRLTA; peptide substrate based on phage clones) [Peptide A11m1]	224	–	–	–	–	–	–
SGKIPRT ↓ ATA (SGKIPRTATA; peptide substrate based on phage clones) [Peptide A11m2]	9.4	–	–	–	–	–	–
SGKIPRT ↓ LTA (SGKIPRTLTA; peptide substrate based on phage clones) [Peptide A11]	86.4	100	100	–	–	–	–
SGLRLAA ↓ ITA (SGLRLAAITA; peptide substrates based on phage clones) [Peptide B49]	–	–	–	510	100	100	–
SGLRPAK ↓ STA (SGLRPAKSTA; peptide substrate based on phage clones) [Peptide A18]	78	28.9	30	–	–	–	–
SGNRYSS ↓ LTA (SGNRYSSLTA; peptide substrate based on phage clones) [Peptide A34]	–	–	–	202	100	100	–
SGPLF ↓ YSVTA (SGPLFYSVTA; peptide substrate based on phage clones) [Peptide A10]	20	100	100	–	36	40	–
SGPRA ↓ VSTTA (SGPRAVSTTA; peptide substrate based on phage clones) [Peptide A6]	178	100	99	–	30	44	–
SGQPHY ↓ LTTA (SGQPHYLTTA; peptide substrate based on phage clones) [Peptide B1]	9	79.6	85	–	–	–	–
SGRR ↓ LIHHTA (SGRRLIHHTA; peptide substrates based on phage clones) [Peptide C11]	–	94.9	74	–	–	–	–
SGRR ↓ LLSRTA (SGRRLLSRTA; peptide substrates based on phage clones) [Peptide A16]	–	20.2	11	–	–	–	–
SGRSLRR ↓ LTA (SGRSLRRLTA; peptide substrate based on phage clones) [Peptide C9R]	–	–	–	302	–	–	–
SGRSLSR ↓ LTA (SGRSLSRLTA; peptide substrate based on phage clones) [Peptide C9]	–	–	–	740	100	100	–
